Laboratory results as given in patent US20140017764.
Positions count from the first letter of the chain named.

B1: TEV-PE10, purified (protein)
chain: HHHHHHSLFKGPRDYNPISSTICHLTNESDGHTTSLYGIGFGPFIITNKHLFRRNNGTLLVQSLHGVFKVKNTTTLQQHLIDGRDMIIIRMPKDFPPFPQKLKFREPQREERICLVTTNFQTKRMSSMVSDTSCTFPSSDGIFWKHWIQTKRGQCGSPLVSTRDGFIVGIHSASNFANTNKYFTSVPKNFMELLTNQEAQQWVSGWRLNADSVLWGGHKVFIPKPEEPFQPVKEATQLMN
B2: TEV-PH21, purified (protein)
chain: B1 chain with T21A, R124S, T150A, R152P, S157C, S172T, S174A, K181N, I222M
B3: wild-type TEV protease (TEV-P), purified (protein)
chain: B1 chain with R124S, R152D, A177T, K181N, I222M

Biological target: […] peptide substrate

| Protein | KM [µM] | kcat [s⁻¹] | kcat/KM [M⁻¹ s⁻¹] |
| --- | --- | --- | --- |
| B1 | 120 | 0.0194 | 160 |
| B2 | 820 | 0.0171 | 20.7 |
| B3 | 110 | 0.13 | 1200 |
